Tests used:
[1] = target: Tfl-bZip (GCN4 bZip segment 226-281 with Tfl-GCN4-p1 dimerization domain) four d-position Leu of the GCN4-p1 zipper replaced by 5,5,5-trifluoroleucine (UniProt P03069); experiment: EMSA; conditions: densitometry of mobility shift
[2] = target: T1, Leu-bZip (GCN4 bZip segment, residues 226-281) (UniProt P03069 P03069:226-281); experiment: EMSA; densitometry of mobility shift; conditions: protein: synthetic; tags: 56-residue peptide; chain copies: 2 (stated, dimer)
[3] = target: T1, Leu-bZip (GCN4 bZip segment, residues …); experiment: EMSA; no protein-bound DNA seen; conditions: protein: synthetic; tags: 56-residue peptide; chain copies: 2 (stated, dimer)

T1 sequence (P03069 226-281, one chain of several): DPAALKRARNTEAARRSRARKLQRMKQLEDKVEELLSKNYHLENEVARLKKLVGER
Chain of Tfl-bZip (GCN4 bZip segment 226-281 with Tfl-GCN4-p1 dimerization domain) four d-position Leu of the GCN4-p1 zipper replaced by 5,5,5-trifluoroleucine (P03069 whole entry, the tested form may be a part): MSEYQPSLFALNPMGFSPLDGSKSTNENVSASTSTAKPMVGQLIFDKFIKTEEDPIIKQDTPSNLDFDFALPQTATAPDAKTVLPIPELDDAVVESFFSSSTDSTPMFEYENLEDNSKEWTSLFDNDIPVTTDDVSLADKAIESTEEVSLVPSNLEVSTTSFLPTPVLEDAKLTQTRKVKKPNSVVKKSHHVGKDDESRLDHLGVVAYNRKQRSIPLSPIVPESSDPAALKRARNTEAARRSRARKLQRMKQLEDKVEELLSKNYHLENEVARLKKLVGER

GTGGAGATGACTCATCTCCGG (double strand) [AP-1 site oligonucleotide]
Kd [1]: 12.5 nM

TGGAGATGACGTCATCTCCT (double strand) [CREB site oligonucleotide]
Kd ([1]; CD at 0 C also shows coil-to-helix transition on CREB DNA): 5.4 nM

B1: AP-1 site oligonucleotide (dsDNA)
DNA 1: GTGGAGATGACTCATCTCCGG
DNA 2: CCGGAGATGAGTCATCTCCAC
Kd [2]: 12.8 nM

B2: NON nonspecific oligonucleotide (dsDNA)
DNA 1: GATCCCAACACGTGTTGGGATC
DNA 2: GATCCCAACACGTGTTGGGATC
binding result [3]: no binding
